One data set concerns the target TadA8e (E. coli) (UniProt P68398). Nature of the data set: SEC; Superdex 200 Increase 10/300 GL, 20 mM HEPES pH7.5, 500 mM KCl; elution position between 44.0 and 29.0 kDa compared with the monomer mass of about 18.7 kDa. On the technique in general: Size exclusion chromatography separates by hydrodynamic size, large species first.
In data set [1] the target is T1, TadA7.10 (Escherichia coli? (laboratory-evolved …, UniProt P68398 1-167, W23R;H36L;P48A;R51L;L84F;A106V;D108N;H123Y;S146C;D147Y;R152P;E155V;I156F;K157N)). The description is as above.
The next data set deals with TadA7.10-3mut (Escherichia coli? (laboratory-evolved …, UniProt P68398 1-167, W23R;H36L;P48A;R51L;L84F;A106V;D108N;T111R;D119N;H123Y;S146C;D147Y;R152P;E155V;I …)). Nature of the data set: MST; 5 mM Mg2+; MST: 20 mM HEPES pH 7.5, 200 mM KCl, 5 mM MgCl2, 1 mM DTT, 0.05% Tween-20; 100 nM DNA; 120 min at room temperature. The settings on record: protein: recombinant; tags: N-terminal non-cleavable His6; chain copies: 2; label: 5' 6-FAM; single-stranded.

Data set [2] has as its target T1, TadA7.10. Described as above. The settings on record: protein: recombinant; tags: N-terminal non-cleavable His6; chain copies: 2; label: 5' 6-FAM; single-stranded.

One may read the stoichiometry N as a count of units in the complex or per binding partner. Regarding “TadA8e (from UniProt P68398 1-167) (enzyme)”, in the data set with TadA8e (E. coli), the stoichiometry N was determined as 2.

The molecule “TadA7.10 (from UniProt P68398 1-167) (enzyme)” displayed a stoichiometry N with TadA7.10 [1] of 2.

Usually Kd stands for a measure of binding affinity in units of concentration. For the molecule TTCTCTTCCACTTTCTTTT (ssDNA) [19-nt ssDNA (NTS of 6VPC with five bases mutated at either end)], the Kd with TadA7.10-3mut worked out at 38.5 nM; with TadA7.10 [2], 106 nM.

Source of the values: article PMC11335294, “Directed-evolution mutations enhance DNA-binding affinity and protein stability of the adenine base editor ABE8e”.
